The target in assay [1] is human EGFRvIII protein, full length, on transfected cells (human) (UniProt P00533). As to the kind of experiment: FACS, 293F-hEGFRvIII 1F3 cells. For orientation: Flow cytometry measures light scatter and fluorescence of single cells or particles in a stream.
Assay [2] has the same target. As to the kind of experiment: FACS, 293F-hEGFRvIII 1D11 cells.
For assay [3] the target is unchanged. As to the kind of experiment: FACS, CHO-K1-hEGFRvIII 1G10 cells.
For assay [4] the target is unchanged. As to the kind of experiment: FACS, U87MG-hEGFRvIII 2C6 cells.
The target is the same in assay [5]. As to the kind of experiment: FACS, U87MG-hEGFRvIII 1B3 cells.
Assay [6] has the same target. As to the kind of experiment: FACS, 293F-hEGFRvIII 1C10 cells.
Assay [7] has the same target. As to the kind of experiment: FACS, CHO-K1-hEGFRvIII 1E3 cells.
Assay [8] shares this target. As to the kind of experiment: FACS, U87MG-hEGFRvIII 1F9 cells.
The target is the same in assay [9]. Put plainly: FACS, U87MG-hEGFRvIII 1D1 cells.
Assay [10] has the same target. Put plainly: FACS, U87MG-hEGFRvIII 2G2 cells.
Assay [11] has the same target. As to the kind of experiment: FACS, CHO-K1-hEGFRvIII 2D11 cells.
The target in assay [12] is EGFR-his (purchased from Sino Biological) (UniProt P00533). As to the kind of experiment: BLI (OctetRED), antibody on anti-human Fc (AHC) biosensor, EGFR-his in solution.
In assay [13] the target is EGFRvIII-his (purchased from Sino Biological) (UniProt P00533). As to the kind of experiment: BLI (OctetRED), antibody on anti-human Fc (AHC) biosensor, EGFRvIII-his in solution.
Assay [14] concerns the target human wild-type EGFR protein on the cell surface (human) (UniProt P00533). Put plainly: FACS on normal human primary hepatocytes.
The target is the same in assay [15]. Put plainly: FACS, MFI on A431 cells over MFI on normal primary hepatocytes.
Assay [16] has as its target human EGFRvIII-hFc protein (human) (UniProt P00533). As to the kind of experiment: ELISA, EGFRvIII-hFc coated. A general note: An ELISA detects its analyte on a solid surface through an enzyme-linked reagent.
The target of assay [17] is human EGFRvIII protein on the cell surface (human) (UniProt P00533). Put plainly: FACS on U87MG-EGFRvIII cells.
In assay [18] the target is human wild-type EGFR protein on the cell surface (human) (UniProt P00533). As to the kind of experiment: FACS on A431 tumor cells.
The next assay addresses T1, pep05 (cysteine pairing not given here).
T1 peptide: KGNYVVTDHGSCVRACK(Biotin)
Put plainly: peptide dot matrix ELISA.

The target in the next assay is T2, pep15 (cysteine pairing not given here).
T2 peptide: SCVRACGADSYEMEEDK(Biotin)
Put plainly: peptide dot matrix ELISA.

The target of the next assay is T3, pep14 (cysteine pairing not given here).
T3 peptide: GSCVRACGADSYEMEEK(Biotin)
Put plainly: peptide dot matrix ELISA.

The target of a further assay is T4, pep19.
T4 sequence (peptide, C-terminal K(Biotin)): ACGADSYEMEEDGVRKK
As to the kind of experiment: peptide dot matrix ELISA.

Assay [19] has as its target T5, human EGFRvIII-hFc protein (human, UniProt P00533 25-645).
T5 construct: extracellular domain; also called immunogen A; hFc-tagged EGFRvIII protein; not shown: human IgG Fc fragment (hFc) of the pCpC vector
Put plainly: ELISA, EGFRvIII-hFc coated.

Assay [20] concerns the target T6, human wild-type EGFR protein on the cell surface (human, UniProt P00533 25-1210).
T6 construct: whole, on cells; Endogenous on A431, HEB, U87MG cells and normal human primary hepatocytes; transfected on CHOk1-EGFR cells; The cell is named under assay; also called A431; HEB
Put plainly: FACS on A431 cells; A431 cells (large amount of wild-type EGFR on the surface). Here is the method:
The cells are washed twice with the HBSS buffer and are counted, and then the cells are diluted with the HBSS buffer to 2×10⁶ cells/ml, added with 1% goat serum blocking solution, with the percentage being the mass percentage, and incubated on ice for 30 minutes, and then centrifugally washed twice with the HBSS buffer. The collected cells are suspended to 2×10⁶ cells/mL with an FACS buffer (HBSS+1% BSA, with the percentage being the mass percentage), added to a 96-well FACS reaction plate at 100 μL/well, then added with 100 μL/well of the purified EGFRvIII antibody (samples to be tested) obtained in example 2, and incubated on ice for 2 hours. The plate is centrifugally washed twice with the FACS buffer, added with 100 μL/well of a fluorescence (Alexa 488) labeled secondary antibody (purchased from Invitrogen), and then incubated on ice for 1 hour. The plate is centrifugally washed 3 times with the FACS buffer, added with 100 μL/well of a fixing solution [4% (v/v) paraformaldehyde] for suspending the cells, and centrifugally washed twice with the FACS buffer after 10 minutes. The cells are suspended in 100 μL of the FACS buffer, and the results are detected and analyzed by FACS (FACS Calibur, purchased from BD). Data analysis is performed by using the software (CellQuest) to obtain the mean fluorescence intensity (MFI) of the cells. Data is further analyzed by using the software (GraphPad Prism5) to perform data fitting and calculate EC50. […] A431 cells (human epidermal cell cancer cell lines) have a large amount of wild-type EGFR protein expressed on the surface thereof. […] U87MG cells (human glioma cell lines) have a small amount of wild-type EGFR protein expressed on the surface thereof, while HEB cells (human glioma cell lines) have a high level of wild-type EGFR protein expression on the surface thereof.

Assay [21] addresses T7, human EGFRvIII protein on the cell surface (human, UniProt P00533 25-1210).
T7 construct: whole, on cells; the cell line is named under assay; also called hEGFRvIII; U87MG-hEGFRvIII
Put plainly: FACS on U87MG-EGFRvIII cells. The procedure, abridged: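 U87MG-EGFRvIII, A431 and primary human hepatocytes (2×10⁶ cells/mL, goat-serum blocked) were incubated with antibody on ice for 2 h, then with an Alexa 488 secondary (1:1000) for 1 h and fixed in 4% paraformaldehyde. Mean fluorescence intensity was read by flow cytometry, and EC50 was derived by curve fitting.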

Assay [22] addresses T7, human EGFRvIII protein on the cell …. Put plainly: FACS on U87MG-hEGFRvIII cells.
The target in assay [23] is T5, human EGFRvIII-hFc protein. As to the kind of experiment: ELISA, EGFRvIII-hFc coated. Here is the method:
The purified immunogen A (EGFRvIII-hFc) obtained in example 1 (for the preparation method, see step (I) in example 1) is diluted with PBS to a final concentration of 1.0 μg/mL, and then added to a 96-well ELISA plate at 100 μl/well. The plate is sealed with a plastic film and incubated at 4° C. overnight. The next day, the plate is washed twice with a plate washing solution [PBS+0.01% (v/v) Tween20], and added with a blocking solution [PBS+0.01% (v/v) Tween20+1% (w/w) BSA] for blocking 2 hours at room temperature. […] The plate is incubated for 2 hours at 37° C., and then washed 3 times with the plate washing solution [PBS+0.01% (v/v) Tween20]. The plate is added with an HRP (horseradish peroxidase) labeled secondary antibody (purchased from Sigma), incubated at 37° C. for 2 hours, and then washed 3 times with the plate washing solution [PBS+0.01% (v/v) Tween20]. The plate is added with 100 μl of TMB substrate/well, incubated for 30 minutes at room temperature, and then added with 100 μl of stopping solution (1.0N HCl)/well. A450 nm value is read using an ELISA plate reader (SpectraMax 384plus, purchased from Molecular Device), and the results are shown in FIG. 11 and table 19.
This is another data set of the same source.

Residue numbers refer to the chain shown, from its start. Where “and” joins values, the source holds several entries; their conditions need not be identical. Identical values can stand only once.

Take IgG subtype control (antibody): the cell mean fluorescence intensity in assay [1] was found to be 4.1; in assay [2], 3.6; in [3], 2.4; in assay [4], 1.8; in assay [5] it was 2.3; in assay [6] it was 4.3. For the same molecule, the cell mean fluorescence intensity worked out at 2.4 in [7]; 1.7 in assay [8]; 3 in assay [9]; 1.8 in assay [10]; 1.8 in assay [11].

B1: Humanized antibody h75G7C6-1 (antibody, human IgG1, V domains shown)
VH: EVQLVQSGAEVKKPGASVKVSCKASGYTFTDYNMDWVKQAPGQGLEWIGDINPNNADTIYNQKFKGRVTLTVDKSTSTVYMELSSLRSEDTAVYYCARGDYDGYYPVYYAMDYWGQGTTVTVSS
VL: EIVLTQSPATLSLSPGERATLSCRASSSVSSSYLHWYQQKPGQAPRLLIYSTSNLAAGIPARFSGSGSGTDFTLTISSLEPEDFAVYYCQQYSGYPLTFGGGTKVEIK
What is called Kd is the free concentration of one partner at which half of the binding sites on the other are occupied at equilibrium, for simple one-to-one binding. High values mean weaker binding, low ones tighter binding. As usually defined, the koff is the first-order rate constant of dissociation. High values mean a short-lived complex, low ones a long-lived complex. The kon is the second-order rate constant of association. Read a high kon as faster complex formation. A word on the EC50: it is the concentration at which the effect is half-maximal. For the molecule B1, in [12], the Kd came out at 205 nM, the koff was 0.00353 s⁻¹ and the kon came out at 17200 M⁻¹ s⁻¹. In assay [13], this molecule yielded a Kd of 1.71 nM, a koff of 0.000141 s⁻¹ and a kon of 82800 M⁻¹ s⁻¹. Further, the MFI in [14] turned out to be 277 MFI. In [15], this molecule yielded a Selective window (MFI A431/Hepatocytes) of 35.5 fold. In assay [16], the EC50 worked out at 0.49 nM and the Maximum OD450 value worked out at 3.41 OD450. Also, in assay [17], the EC50 was 4.93 nM and the Maximum mean fluorescence intensity was 18300 MFI. The MFI in assay [18] came out at 9780 MFI.

B2: Humanized antibody h75G7C6-2 (antibody, human IgG1, V domains shown)
VH: B1 VH
VL: B1 VL with I2N, Y50F, F72Y
In assay [12], B2 displayed a Kd of 200 nM, a koff of 0.00405 s⁻¹ and a kon of 20300 M⁻¹ s⁻¹. In assay [13], this molecule yielded a Kd of 1.54 nM, a koff of 0.00014 s⁻¹ and a kon of 90600 M⁻¹ s⁻¹. The MFI in [14] turned out to be 250 MFI. The molecule further displayed a Selective window (MFI A431/Hepatocytes) in assay [15] of 47 fold. In [16], this molecule yielded an EC50 of 0.38 nM and a Maximum OD450 value of 3.38 OD450. In assay [17], this molecule displayed an EC50 of 5.67 nM and a Maximum mean fluorescence intensity of 18300 MFI. The molecule also showed an MFI in [18] of 11800 MFI.

B3: Chimeric antibody 63A10 (antibody, V domains shown)
VH: QVQLQQSGAELARPGASVKMSCKASGYTFISFTMHWVKQRPGQGLEWIGYINPNSGYTKYNQKFKDKATLTAGQSSSTAYMQLSSLTSEDSAVYYCTRGGGRGFAYWGQGTLVTVSA
VL: DILMTQSPSSMSVSLGDTVTITCHASQDINSNIGWLQQKPGKSFKALIYHGTNLEDGVPSRFSGSGSGADYSLTISSLESEDFADYYCVQYAQFPFTFGSGTKLEIK
Turning to B3, the ELISA signal was 0.15 and 0.17 in the assay with pep05; 0.14 and 0.11 with pep15; 0.08 and 0.23 with pep14; 0.11 and 0.15 in the assay with pep19.

B4: Chimeric antibody 63A10 (antibody, human IgG1, V domains shown)
VH: B3 VH
VL: B3 VL
notes: also called c63A10A7; chimeric antibody c63A10A7
As to B4, in [19], it took 0.22 nM to reach a half-maximal effect (EC50) and the “Maximum OD450 value” was 3.6 OD450. This molecule registered an EC50 in assay [20] of 696 nM. Moreover, in [21], the midpoint of the response, the EC50, lay at 3.8 nM and the “Maximum mean fluorescence intensity” value came to 11600 MFI. In assay [22], this molecule had an EC50 of 2.2 nM. Further, in assay [23], the “OD450 nm at 0.0001 nM antibody” value was determined as 0.07 OD450, the “OD450 nm at 0.001 nM antibody” value is 0.11 OD450, the “OD450 nm at 0.01 nM antibody” value worked out at 0.37 OD450 and the “OD450 nm at 0.1 nM antibody” value was 1.05 OD450. In assay [23], the “OD450 nm at 1 nM antibody” value turned out to be 3.33 OD450, the “OD450 nm at 10 nM antibody” value was 3.55 OD450 and the “OD450 nm at 100 nM antibody” value was found to be 3.55 OD450.

B5: Chimeric antibody 64F1 (antibody, human IgG1, V domains shown)
VH: B3 VH with I30S, F32Y, V37A, N54S, G73D, Q74K, A92I, T97A
VL: QIVLTQSPAIMSASPGERVTMTCSASSSVSYMYWYQQKPGSSPRLLIYDTSNLASGVPVRFSGSGSGTSYSLTISRVEAEDAATYYCQQWSSYSLTFGAGTKLELK
notes: also called clone 64F1F8
B5: a half-maximal effect in assay [20] (EC50) was put at 180 nM. Moreover, in assay [22], the EC50 is 2.1 nM. Also, in assay [23], the “OD450 nm at 0.0001 nM antibody” value amounted to 0.08 OD450, the “OD450 nm at 0.001 nM antibody” value amounted to 0.11 OD450, the “OD450 nm at 0.01 nM antibody” value was found to be 0.35 OD450 and the “OD450 nm at 0.1 nM antibody” value was 2.23 OD450. In addition, in assay [23], the “OD450 nm at 1 nM antibody” value turned out to be 3.72 OD450, the “OD450 nm at 10 nM antibody” value turned out to be 3.78 OD450 and the “OD450 nm at 100 nM antibody” value turned out to be 3.7 OD450.
